Measurements published in article PMC11020826.

Biological target: PYE-GFP (Arabidopsis) (UniProt Q9SN74)
Assay: FRET or BRET; FRET-APB (acceptor photobleaching) in nuclei of transiently transformed tobacco leaf epidermis cells; GFP donor, mCherry acceptor; ß-estradiol-induced; n = 15 nuclei; negative control donor only

UniProt Q9SN74, sequence (Q9SN74 whole entry): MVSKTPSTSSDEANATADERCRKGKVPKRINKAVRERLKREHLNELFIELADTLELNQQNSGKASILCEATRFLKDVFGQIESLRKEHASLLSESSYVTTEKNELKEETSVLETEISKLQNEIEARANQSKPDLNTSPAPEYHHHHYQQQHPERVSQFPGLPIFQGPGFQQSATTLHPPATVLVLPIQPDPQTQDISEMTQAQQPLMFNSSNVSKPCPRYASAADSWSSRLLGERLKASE

Substance OLV-mCherry (natural protein) has an FRET efficiency of 3.5%.
